From patent US20160297884A1 (Pfizer, published 2016)
Substitutions are numbered along the chain they refer to.

T1: Human BCMA (human, UniProt Q02223 1-54, limits assumed)
T1 construct: also called huBCMA; B-cell maturation antigen
T1 sequence (looked up): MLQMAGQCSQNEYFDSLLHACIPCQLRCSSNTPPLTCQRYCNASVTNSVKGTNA

B1: A02_Rd4_6nM_C26 (antibody, V domains shown)
VH: EVQLLESGGGLVQPGGSLRLSCAASGFTFSSYAMNWVRQAPGKGLEWVSAISDSGGSTYYADSVKGRFTISRDNSKNTLYLQMNSLRAEDTAVYYCARYWPMSLWGQGTLVTVSS
VL: EIVLTQSPGTLSLSPGERATLSCRASQSVSSLYLAWYQQKPGQAPRLLMYDASIRATGIPDRFSGSGSGTDFTLTISRLEPEDFAVYYCQQYQVWPLTFGQGTKVEIK
notes: IgG
B2: COMBO_Rd4_0.6nM_C30 (antibody, V domains shown)
VH: B1 VH with A33P, N35S, S52G, D53G, S103D, L104S
VL: B1 VL with S31Y, L32M, M49I, Q93K, V94S
notes: IgG
B3: C01_Rd4_6nM_C26 (antibody, V domains shown)
VH: B1 VH with A33P, N35S, S52G, D53G, T58L, Y59P, S103D, L104S
VL: B1 VL with S31A, M49I, I54S, T57P, Q93S, V94A
notes: IgG
B4: C01_Rd4_0.6nM_C03 (antibody, V domains shown)
VH: B1 VH with A33P, N35S, S52G, D53G, T58L, Y59P, S103D, L104S
VL: B1 VL with Q27C, S28D, L32T, M49I, I54S, T57P, Q93M, V94R, W95S
notes: IgG
B5: C01_Rd4_6nM_C24 (antibody, V domains shown)
VH: B1 VH with A33P, N35S, S52G, D53G, T58L, Y59P, S103D, L104S
VL: B1 VL with S31P, L32E, M49I, I54S, T57P, Q93S
notes: IgG
B6: COMBO_Rd4_0.6nM_C11 (antibody, V domains shown)
VH: B1 VH with A33P, N35S, I51A, S52L, D53G
VL: B1 VL with S31V, L32R, Q93G, V94S, L97I
notes: IgG
B7: COMBO_Rd4_0.6nM_C05 (antibody, V domains shown)
VH: B1 VH with S52G, D53G
VL: B1 VL with L32T, Q93M, V94S
notes: IgG
B8: COMBO_Rd4_6nM_C07 (antibody, V domains shown)
VH: B1 VH with A33P, N35S, S52G, D53G, T58L, Y59P, S103A, L104D
VL: B1 VL with S28P, V29I, L32S, V94G
notes: IgG
B9: COMBO_Rd4_0.6nM_C14 (antibody, V domains shown)
VH: B1 VH with A33P, N35S, S52G, D53G, T58L, Y59P, S103D, L104I
VL: B1 VL with S31A, Q93Y, V94G
notes: IgG
B10: C01_Rd4_6nM_C09 (antibody, V domains shown)
VH: B1 VH with A33P, N35S, I51T, S52V, D53G, T58I, Y59G, S103D, L104S
VL: B1 VL with R24A, A25C, L32T, M49I, I54S, T57P, Q93S, V94A
notes: IgG
B11: COMBO_Rd4_0.6nM_C20 (antibody, V domains shown)
VH: B1 VH with A33P, N35S, S52G, D53G, T58L, Y59P, S103D, L104S
VL: B1 VL with S31Y, Q93M, V94E
notes: IgG
B12: COMBO_Rd4_0.6nM_C09 (antibody, V domains shown)
VH: B1 VH with A33P, N35S, S52G, D53G, T58L, Y59P, S103D, L104I
VL: B1 VL with L32T, V94E
notes: IgG
B13: C01_Rd4_0.6nM_C06 (antibody, V domains shown)
VH: B1 VH with A33P, N35S, S52G, D53G, T58L, Y59P, S103D, L104S
VL: B1 VL with Q27E, S28A, S30P, L32T, M49I, I54S, T57P, Q93S, V94A, W95F
notes: IgG
B14: COMBO_Rd4_0.6nM_C04 (antibody, V domains shown)
VH: B1 VH with A33P, N35S, I51H, S52I, D53G, S103D, L104S
VL: B1 VL with L32T, V94S
notes: IgG
B15: COMBO_Rd4_0.6nM_C23 (antibody, V domains shown)
VH: B1 VH with A33P, N35S, I51L, S52F, D53G, S103D, L104S
VL: B1 VL with A25P, S26R, L32S, V94D
notes: IgG
B16: C01_Rd4_6nM_C04 (antibody, V domains shown)
VH: B1 VH with A33P, N35S, S52G, D53G, T58L, Y59P, S103D, L104S
VL: B1 VL with R24C, A25S, L32T, M49I, I54S, T57P, Q93S, V94A, W95F
notes: IgG
B17: COMBO_Rd4_0.6nM_C17 (antibody, V domains shown)
VH: B1 VH with A33P, N35S, S52G, D53G, T58L, Y59P, S103D, L104I
VL: B1 VL with S28G, V29I, L32T, Q93A, V94Y
notes: IgG
B18: C01_Rd4_0.6nM_C27 (antibody, V domains shown)
VH: B1 VH with A33P, N35S, S52G, D53G, T58L, Y59P, S103D, L104S
VL: B1 VL with L32T, M49I, I54S, T57P, Q93S, V94R
notes: IgG
B19: C01_Rd4_6nM_C10 (antibody, V domains shown)
VH: B1 VH with A33P, N35S, S52G, D53G, T58L, Y59P, S103D, L104S
VL: B1 VL with L32V, M49I, I54S, T57P, Q93S, V94T
notes: IgG
B20: C01_Rd4_0.6nM_C09 (antibody, V domains shown)
VH: B1 VH with A33P, N35S, S52G, D53G, T58L, Y59P, S103D, L104S
VL: B1 VL with Y33F, M49I, I54S, T57P, Q93S, V94A
notes: IgG
B21: COMBO_Rd4_0.6nM_C02 (antibody, V domains shown)
VH: B1 VH with A33P, N35S, S52G, D53G, T58L, Y59P, S103D, L104S
VL: B1 VL with Q27I, S28A, L32T, Q93M
notes: IgG
B22: C01_Rd4_6nM_C12 (antibody, V domains shown)
VH: B1 VH with A33P, N35S, S52G, D53G, S57W, T58S, S103D, L104S
VL: B1 VL with R24W, A25L, L32T, M49I, I54S, T57P, Q93S, V94E
notes: IgG; also called PC1C12
B23: COMBO_Rd4_6nM_C02 (antibody, V domains shown)
VH: B1 VH with S57F, T58V, S103D, L104S
VL: B1 VL with L32S, Q93E, V94F
notes: IgG
B24: COMBO_Rd4_0.6nM_C29 (antibody, V domains shown)
VH: B1 VH with A33P, N35S, S52G, D53G, T58L, Y59P, S103D, L104I
VL: B1 VL with L32S, V94S
notes: IgG
B25: C01_Rd4_0.6nM_C16 (antibody, V domains shown)
VH: B1 VH with A33P, N35S, S52G, D53G, T58L, Y59P, S103D, L104S
VL: B1 VL with L32T, M49I, I54S, T57P, Q93S, V94S
notes: IgG
B26: C01_Rd4_6nM_C20 (antibody, V domains shown)
VH: B1 VH with A33P, N35S, S52G, D53G, T58L, Y59P, S103D, L104S
VL: B1 VL with S31P, M49I, I54S, T57P, Q93S, V94A, W95F
notes: IgG

What follows are binders tested against T2, Cynomolgus monkey BCMA (cynomolgus monkey) (assay: SPR, IgG immobilised, cyno BCMA analyte).
T2 construct: Soluble analyte in SPR; also called cyBCMA; Cyno BCMA
Procedure: (§1) All experiments were performed on a Bio-Rad Proteon XPR36 surface Plasmon resonance biosensor (Bio-Rad, Hercules, Calif.). […] The analysis temperature for the immobilization was 25° C. and the running buffer was HBS-T+(10 mM HEPES, 150 mM NaCl, 0.05% Tween-20, pH 7.4). Channels were activated in the analyte (horizontal) direction by injecting a mixture of 1 mM ECD and 0.25 mM NHS for 3 minutes at a flow rate of 30 μL/min. IgGs were immobilized on the activated spots by injecting them in the ligand (vertical) direction at 20 μg/mL in 10 mM Acetate pH 4.5 buffer for 1.5 minutes at […]. The activated surfaces were blocked by injecting 1M ethanolamine, pH 8.5 in the analyte direction for 3 minutes at 30 μL/min.
(§2) The analysis temperature for the BCMA binding analysis was 37° C. or 25° C. in a running buffer of HBS-T+, supplemented with 1 mg/mL BSA. A kinetic titration method was employed for the interaction analysis as described in Abdiche, et al. Human BCMA (huBCMA) or cynomolgus monkey BCMA (cyBCMA) analyte was injected in the analyte direction using a series of injections from low to high concentration. The concentrations used were 0.08 nM, 0.4 nM, 2 nM, 10 nM and 50 nM (a 5-membered series, with a 5-fold dilution factor and top concentration of 50 nM). The association time for a given analyte dilution was two minutes. Immediately after the 50 nM BCMA injection, dissociation was monitored for 2 hours.
(§3) The sensorgrams were double-referenced and fit to a 1:1 Langmuir with mass transport kinetic titration model in BIAevaluation Software version 4.1.1 (GE Lifesciences, Piscataway, N.J.).

Binder | Kd [nM] | koff [s⁻¹] | kon [M⁻¹ s⁻¹]
B1 | 0.203 | 0.000448 | 2.21e+06
B2 | 0.481 | 0.000808 | 1.68e+06
B3 | 0.419 | 0.00199 | 4.75e+06
B4 | 2.53 | 0.0119 | 4.72e+06
B5 | 0.281 | 0.000891 | 3.17e+06
B6 | 1.92 | 0.00423 | 2.2e+06
B7 | 0.886 | 0.00172 | 1.94e+06
B8 | 0.237 | 0.000934 | 3.94e+06
B9 | 0.185 | 0.000645 | 3.48e+06
B10 | 2.33 | 0.00868 | 3.73e+06
B11 | 0.092 | 0.000284 | 3.09e+06
B12 | 0.092 | 0.000346 | 3.77e+06
B13 | 1.95 | 0.0121 | 6.22e+06
B14 | 0.039 | 0.000137 | 3.52e+06
B15 | 0.189 | 0.000531 | 2.81e+06
B16 | 5.16 | 0.0327 | 6.34e+06
B17 | 0.33 | 0.00101 | 3.06e+06
B18 | 0.852 | 0.00285 | 3.34e+06
B19 | 0.493 | 0.00219 | 4.44e+06
B20 | 1.77 | 0.00936 | 5.28e+06
B21 | 0.164 | 0.000494 | 3.01e+06
B22 | 0.82 | 0.0037 | 4.51e+06
B23 | 1.71 | 0.00136 | 795000
B24 | 0.084 | 0.000336 | 4e+06
B25 | 0.939 | 0.00464 | 4.95e+06
B26 | 1.74 | 0.00625 | 3.6e+06

These binders were tested against T1, Human BCMA (assay: SPR, IgG immobilised, human BCMA analyte).
Procedure: as §1, §2, §3

Binder | Kd [nM] | koff [s⁻¹] | kon [M⁻¹ s⁻¹]
B1 | 0.033 | 0.000139 | 4.26e+06
B2 | 0.065 | 0.000282 | 4.35e+06
B3 | 0.09 | 0.00136 | 1.5e+07
B4 | 0.964 | 0.015 | 1.55e+07
B5 | 0.467 | 0.00348 | 7.47e+06
B6 | 0.207 | 0.00106 | 5.11e+06
B7 | 0.115 | 0.000497 | 4.32e+06
B8 | 0.035 | 0.000371 | 1.05e+07
B9 | 0.038 | 0.000328 | 8.66e+06
B10 | 0.811 | 0.0128 | 1.58e+07
B11 | 0.019 | 0.000146 | 7.65e+06
B12 | 0.031 | 0.000319 | 1.04e+07
B13 | 0.847 | 0.0154 | 1.82e+07
B14 | 0.015 | 0.000158 | 1.07e+07
B15 | 0.028 | 0.00021 | 7.39e+06
B16 | 2.13 | 0.0497 | 2.33e+07
B17 | 0.092 | 0.000801 | 8.68e+06
B18 | 0.303 | 0.00374 | 1.23e+07
B19 | 0.162 | 0.00212 | 1.31e+07
B20 | 0.545 | 0.00825 | 1.51e+07
B21 | 0.022 | 0.000185 | 8.57e+06
B22 | 0.535 | 0.00649 | 1.21e+07
B23 | 0.422 | 0.000443 | 1.05e+06
B24 | 0.019 | 0.000277 | 1.47e+07
B25 | 0.407 | 0.0063 | 1.55e+07
B26 | 0.459 | 0.00276 | 6.02e+06
